Source: US12285470B2, “Trim proteins and galectins cooperate and codirect autophagy and are useful in the treatment of autophagy related diseases” (UNM RAINFOREST INNOVATIONS, priority 2016, dated 2025)

T1: Galectin-8 (Homo sapiens, UniProt O00214)
T1 construct: made in house; host or cells: Escherichia coli SoluBL21
T1 sequence (O00214 1-359 isoform O00214-2): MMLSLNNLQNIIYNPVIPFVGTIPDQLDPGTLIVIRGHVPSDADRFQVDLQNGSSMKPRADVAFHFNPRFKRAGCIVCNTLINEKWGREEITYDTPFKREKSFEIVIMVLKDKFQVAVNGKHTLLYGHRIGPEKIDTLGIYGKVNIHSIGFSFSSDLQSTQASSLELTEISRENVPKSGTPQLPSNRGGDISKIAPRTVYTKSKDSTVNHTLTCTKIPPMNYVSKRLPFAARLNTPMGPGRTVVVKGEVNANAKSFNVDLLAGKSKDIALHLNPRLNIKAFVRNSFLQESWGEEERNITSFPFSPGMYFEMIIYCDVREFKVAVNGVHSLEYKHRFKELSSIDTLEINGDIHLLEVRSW


Key:
[1] = molecular target: T2, Galectin-3 (Homo sapiens, UniProt P17931); assay: GST pulldown of in vitro translated radiolabeled TRIMs with GST-Galectin-3; type: binding; conditions: in vitro translated 35S-Myc-HA-TRIMs, no ULK1 added
T2 construct: made in house; host or cells: Escherichia coli SoluBL21
Text: (§1) GST-fusion proteins were expressed in Escherichia coli SoluBL21 (Amsbio). […] The [^35S] labeled proteins were produced using the TNT T7 Quick Coupled Transcription/Translation System (Promega) in the presence of [^35S] L-methionine. The proteins were eluted from washed beads by boiling in SDS-PAGE gel loading buffer. separated by SDS-PAGE, and radiolabeled proteins were detected in a Fujifilm bioimaging analyzer BAS-5000 (Fuji).

[2] = molecular target: T1, Galectin-8; assay: GST pulldown of in vitro translated radiolabeled TRIMs with GST-Galectin-8; type: binding; conditions: in vitro translated 35S-Myc-HA-TRIMs
Text: as §1

T2 sequence (P17931 whole entry): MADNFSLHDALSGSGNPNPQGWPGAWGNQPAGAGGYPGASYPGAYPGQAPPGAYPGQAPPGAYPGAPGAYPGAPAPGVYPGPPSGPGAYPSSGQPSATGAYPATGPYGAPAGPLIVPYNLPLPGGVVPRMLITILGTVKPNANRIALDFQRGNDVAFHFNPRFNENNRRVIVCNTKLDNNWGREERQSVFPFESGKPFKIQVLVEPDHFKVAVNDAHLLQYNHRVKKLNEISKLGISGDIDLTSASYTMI

Row | binding to GST-Galectin-3 in GST pulldown [1] | binding to GST-Galectin-8 in GST pulldown [2] | Molecule
1 | did not | did not | TRIM21: TRIM protein, Accession No. NM_003141, SEQ ID NO: 8
2 | did not | did not | TRIM55: TRIM (tripartite motif) protein tested in GST-Galectin pulldowns (protein, left off: small tags and cut ends, TRIM (tripartite motif) protein tested in GST-Galectin pulldowns) MSASLNYKSFSKEQQTMDNLEKQLICPICLEMFTKPVVILPCQHNLCRKCASDIFQASNPYLPTRGGTTMASGGRFRCPSCRHEVVLDRHGVYGLQRNLLVENIIDIYKQESTRPEKKSDQPMCEEHEEERINIYCLNCEVPTCSLCKVFGAHKDCQVAPLTHVFQRQKSELSDGIAILVGSNDRVQGVISQLEDTCKTIEECCRKQKQELCEKFDYLYGILEERKNEMTQVITRTQEEKLEHVRALIKKYSDHLENVSKLVESGIQFMDEPEMAVFLQNAKTLLKKISEASKAFQMEKIEHGYENMNHFTVNLNREEKIIREIDFYREDEDEEEEEGGEGEKEGEGEVGGEAVEVEEVENVQTEFPGEDENPEKASELSQVELQAAPGALPVSSPEPPPALPPAADAPVTQGEVVPTGSEQTTESETPVPAAAETADPLFYPSWYKGQTRKATTNPPCTPGSEGLGQIGPPGSEDSNVRKAEVAAAAASERAAVSGKETSAPAATSQIGFEAPPLQGQAAAPASGSGADSEPARHIFSFSWLNSLNE
3 | bound | bound | TRIM20: TRIM protein, Accession No. NM_000243, SEQ ID NO: 7 (protein, listed as Homo sapiens) MAKTPSDHLLSTLEELVPYDFEKFKFKLQNTSVQKEHSRIPRSQIQRARPVKMATLLVTYYGEEYAVQLTLQVLRAINQRLLAEELHRAAIQEYSTQENGTDDSAASSSLGENKPRSLKTPDHPEGNEGNGPRPYGGGAASLRCSQPEAGRGLSRKPLSKRREKASEGLDAQGKPRTRSPALPGGRSPGPCRALEGGQAEVRLRRNASSAGRLQGLAGGAPGQKECRPFEVYLPSGKMRPRSLEVTISTGEKAPANPEILLTLEEKTAANLDSATEPRARPTPDGGASADLKEGPGNPEHSVTGRPPDTAASPRCHAQEGDPVDGTCVRDSCSFPEAVSGHPQASGSRSPGCPRCQDSHERKSPGSLSPQPLPQCKRHLKQVQLLFCEDHDEPICLICSLSQEHQGHRVRPIEEVALEHKKKIQKQLEHLKKLRKSGEEQRSYGEEKAVSFLKQTEALKQRVQRKLEQVYYFLEQQEHFFVASLEDVGQMVGQIRKAYDTRVSQDIALLDALIGELEAKECQSEWELLQDIGDILHRAKTVPVPEKWTTPQEIKQKIQLLHQKSEFVEKSTKYFSETLRSEMEMFNVPELIGAQAHAVNVILDAETAYPNLIFSDDLKSVRLGNKWERLPDGPQRFDSCIIVLGSPSFLSGRRYWEVEVGDKTAWILGACKTSISRKGNMTLSPENGYWVVIMMKENEYQASSVPPTRLLIKEPPKRVGIFVDYRVGSISFYNVTARSHIYTFASCSFSGPLQPIFSPGTRDGGKNTAPLTICPVGGQGPD
4 | bound | bound | TRIM6: TRIM (tripartite motif) protein tested in GST-Galectin pulldowns (protein, left off: small tags and cut ends, TRIM (tripartite motif) protein tested in GST-Galectin pulldowns) MTSPVLVDIREEVTCPICLELLTEPLSIDCGHSFCQACITPNGRESVIGQEGERSCPVCQTSYQPGNLRPNRHLANIVRRLREVVLGPGKQLKAVLCADHGEKLQLFCQEDGKVICWLCERSQEHRGHHTFLVEEVAQEYQEKFQESLKKLKNEEQEAEKLTAFIREKKTSWKNQMEPERCRIQTEFNQLRNILDRVEQRELKKLEQEEKKGLRIIEEAENDLVHQTQSLRELISDLERRCQGSTMELLQDVSDVTERSEFWTLRKPEALPTKLRSMFRAPDLKRMLRVCRELTDVQSYWVDVTLNPHTANLNLVLAKNRRQVRFVGAKVSGPSCLEKHYDCSVLGSQHFSSGKHYWEVDVAKKTAWILGVCSNSLGPTFSFNHFAQNHSAYSRYQPQSGYWVIGLQHNHEYRAYEDSSPSLLLSMTVPPRRVGVFLDYEAGTVSFYNVTNHGFPIYTFSKYYFPTTLCPYFNPCNCVIPMTLRRPSS
5 | bound | bound | TRIM49: TRIM (tripartite motif) protein tested in GST-Galectin pulldowns (protein, left off: small tags and cut ends, TRIM (tripartite motif) protein tested in GST-Galectin pulldowns) MNSGILQVFQGELICPLCMNYFIDPVTIDCGHSFCRPCFYLNWQDIPFLVQCSECTKSTEQINLKTNIHLKKMASLARKVSLWLFLSSEEQMCGTHRETKKIFCEVDRSLLCLLCSSSQEHRYHRHRPIEWAAEEHREKLLQKMQSLWEKACENHRNLNVETTRTRCWKDYVNLRLEAIRAEYQKMPAFHHEEEKHNLEMLKKKGKEIFHRLHLSKAKMAHRMEILRGMYEELNEMCHKPDVELLQAFGDILHRSESVLLHMPQPLNPELSAGPITGLRDRLNQFRVHITLHHEEANNDIFLYEILRSMCIGCDHQDVPYFTATPRSFLAWGVQTFTSGKYYWEVHVGDSWNWAFGVCNMYRKEKNQNEKIDGKAGLFLLGCVKNDIQCSLFTTSPLMLQYIPKPTSRVGLFLDCEAKTVSFVDVNQSSLIYTIPNCSFSPPLRPIFCCIHF
6 | did not | did not | TRIM56: TRIM protein, Accession No. NM_030961, SEQ ID NO: 10 (protein, listed as Homo sapiens) MVSHGSSPSLLEALSSDFLACKICLEQLRAPKTLPCLHTYCQDCLAQLADGGRVRCPECRETVPVPPEGVASFKTNFFVNGLLDLVKARACGDLRAGKPACALCPLVGGTSTGGPATARCLDCADDLCQACADGHRCTRQTHTHRVVDLVGYRAGWYDEEARERQAAQCPQHPGEALRFLCQPCSQLLCRECRLDPHLDHPCLPLAEAVRARRPGLEGLLAGVDNNLVELEAARRVEKEALARLREQAARVGTQVEEAAEGVLRALLAQKQEVLGQLRAHVEAAEEAARERLAELEGREQVARAAAAFARRVLSLGREAEILSLEGAIAQRLRQLQGCPWAPGPAPCLLPQLELHPGLLDKNCHLLRLSFEEQQPQKDGGKDGAGTQGGEESQSRREDEPKTERQGGVQPQAGDGAQTPKEEKAQTTREEGAQTLEEDRAQTPHEDGGPQPHRGGRPNKKKKFKGRLKSISREPSPALGPNLDGSGLLPRPIFYCSFPTRMPGDKRSPRITGLCPFGPREILVADEQNRALKRFSLNGDYKGTVPVPEGCSPCSVAALQSAVAFSASARLYLINPNGEVQWRRALSLSQASHAVAALPSGDRVAVSVAGHVEVYNMEGSLATRFIPGGKASRGLRALVFLTTSPQGHFVGSDWQQNSVVICDGLGQVVGEYKGPGLHGCQPGSVSVDKKGYIFLTLREVNKVVILDPKGSLLGDFLTAYHGLEKPRVTTMVDGRYLVVSLSNGTIHIFRVRSPDS
7 | bound | bound | TRIM 17: TRIM (tripartite motif) protein tested in GST-Galectin pulldowns (protein, left off: small tags and cut ends, TRIM (tripartite motif) protein tested in GST-Galectin pulldowns) MEAVELARKLQEEATCSICLDYFTDPVMTTCGHNFCRACIQLSWEKARGKKGRRKRKGSFPCPECREMSPQRNLLPNRLLTKVAEMAQQHPGLQKQDLCQEHHEPLKLFCQKDQSPICVVCRESREHRLHRVLPAEEAVQGYKLKLEEDMEYLREQITRTGNLQAREEQSLAEWQGKVKERRERIVLEFEKMNLYLVEEEQRLLQALETEEEETASRLRESVACLDRQGHSLELLLLQLEERSTQGPLQMLQDMKEPLSRKNNVSVQCPEVAPPTRPRTVCRVPGQIEVLRGFLEDVVPDATSAYPYLLLYESRQRRYLGSSPEGSGFCSKDRFVAYPCAVGQTAFSSGRHYWEVGMNITGDALWALGVCRDNVSRKDRVPKCPENGFWVVQLSKGTKYLSTFSALTPVMLMEPPSHMGIFLDFEAGEVSFYSVSDGSHLHTYSQATFPGPLQPFFCLGAPKSGQMVISTVTMWVKG
8 | bound | bound | TRIM22: TRIM protein, Accession No. NM_006074, SEQ ID NO: 9 (protein, listed as Homo sapiens) MDFSVKVDIEKEVTCPICLELLTEPLSLDCGHSFCQACITAKIKESVIISRGESSCPVCQTRFQPGNLRPNRHLANIVERVKEVKMSPQEGQKRDVCEHHGKKLQIFCKEDGKVICWVCELSQEHQGHQTFRINEVVKECQEKLQVALQRLIKEDQEAEKLEDDIRQERTAWKNYIQIERQKILKGFNEMRVILDNEEQRELQKLEEGEVNVLDNLAAATDQLVQQRQDASTLISDLQRRLRGSSVEMLQDVIDVMKRSESWTLKKPKSVSKKLKSVFRVPDLSGMLQVLKELTDVQYYWVDVMLNPGSATSNVAISVDQRQVKTVRTCTFKNSNPCDFSAFGVFGCQYFSSGKYYWEVDVSGKIAWILGVHSKISSLNKRKSSGFAFDPSVNYSKVYSRYRPQYGYWVIGLQNTCEYNAFEDSSSSDPKVLTLFMAVPPCRIGVFLDYEAGIVSFFNVTNHGALIYKFSGCRFSRPAYPYFNPWNCLVPMTVCPPSS
